B1: Antibody Ab2 (antibody, human IgG1, kappa, N297A)
heavy: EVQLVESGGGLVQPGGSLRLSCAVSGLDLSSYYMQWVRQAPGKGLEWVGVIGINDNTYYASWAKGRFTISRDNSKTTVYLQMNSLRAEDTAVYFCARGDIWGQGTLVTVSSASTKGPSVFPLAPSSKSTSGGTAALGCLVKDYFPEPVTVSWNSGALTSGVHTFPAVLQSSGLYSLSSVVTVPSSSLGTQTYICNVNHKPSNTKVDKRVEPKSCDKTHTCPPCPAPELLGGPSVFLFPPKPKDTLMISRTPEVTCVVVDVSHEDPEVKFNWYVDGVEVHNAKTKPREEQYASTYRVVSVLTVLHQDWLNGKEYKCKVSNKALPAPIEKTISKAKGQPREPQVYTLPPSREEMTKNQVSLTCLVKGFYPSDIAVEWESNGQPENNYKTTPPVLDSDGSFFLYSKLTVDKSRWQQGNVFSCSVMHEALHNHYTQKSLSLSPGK
light: QVLTQSPSSLSASVGDRVTINCQASQSVYDNNYLAWYQQKPGKVPKQLIYSTSTLASGVPSRFSGSGSGTDFTLTISSLQPEDVATYYCLGSYDCSSGDCFVFGGGTKVEIKRTVAAPSVFIFPPSDEQLKSGTASVVCLLNNFYPREAKVQWKVDNALQSGNSQESVTEQDSKDSTYSLSSTLTLSKADYEKHKVYACEVTHQGLSSPVTKSFNRGEC
notes: Humanized anti-CGRP antibody, full length
B2: Antibody Ab14 (antibody, human IgG1, kappa, N297A)
heavy: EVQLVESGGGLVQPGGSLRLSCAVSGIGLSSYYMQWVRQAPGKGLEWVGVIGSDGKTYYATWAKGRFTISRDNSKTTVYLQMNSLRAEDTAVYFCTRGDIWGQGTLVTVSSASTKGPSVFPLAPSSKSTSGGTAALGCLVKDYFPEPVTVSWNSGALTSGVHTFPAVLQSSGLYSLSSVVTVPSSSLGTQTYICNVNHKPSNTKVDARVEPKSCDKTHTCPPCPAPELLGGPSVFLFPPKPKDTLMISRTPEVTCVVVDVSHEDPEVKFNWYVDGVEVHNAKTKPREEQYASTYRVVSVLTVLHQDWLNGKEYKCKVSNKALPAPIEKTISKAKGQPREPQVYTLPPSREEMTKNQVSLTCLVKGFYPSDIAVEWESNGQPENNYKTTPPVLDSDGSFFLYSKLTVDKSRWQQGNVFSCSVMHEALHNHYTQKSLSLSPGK
light: QVLTQSPSSLSASVGDRVTINCQASQNVYNNNYLAWYQQKPGKVPKQLIYSTSTLASGVPSRFSGSGSGTDFTLTISSLQPEDVATYYCLGSYDCSRGDCFVFGGGTKVEIKRTVAAPSVFIFPPSDEQLKSGTASVVCLLNNFYPREAKVQWKVDNALQSGNSQESVTEQDSKDSTYSLSSTLTLSKADYEKHKVYACEVTHQGLSSPVTKSFNRGEC
notes: as for B1
B3: Antibody Ab8 (antibody, human IgG1, kappa, N297A, V domains shown)
VH: EVQLVESGGGLVQPGGSLRLSCAVSGIDLSNHYMQWVRQAPGKGLEWVGVVGINGRTYYASWAKGRFTISRDNSKTTVYLQMNSLRAEDTAVYFCARGDIWGQGTLVTVSS
VL: QVLTQSPSSLSASVGDRVTINCQASQSVYNYNYLAWYQQKPGKVPKQLIYSTSTLASGVPSRFSGSGSGTDFTLTISSLQPEDVATYYCLGSYDCSTGDCFVFGGGTKVEIKR
notes: as for B1
B4: Antibody Ab5 (antibody, human IgG1, kappa, N297A)
heavy: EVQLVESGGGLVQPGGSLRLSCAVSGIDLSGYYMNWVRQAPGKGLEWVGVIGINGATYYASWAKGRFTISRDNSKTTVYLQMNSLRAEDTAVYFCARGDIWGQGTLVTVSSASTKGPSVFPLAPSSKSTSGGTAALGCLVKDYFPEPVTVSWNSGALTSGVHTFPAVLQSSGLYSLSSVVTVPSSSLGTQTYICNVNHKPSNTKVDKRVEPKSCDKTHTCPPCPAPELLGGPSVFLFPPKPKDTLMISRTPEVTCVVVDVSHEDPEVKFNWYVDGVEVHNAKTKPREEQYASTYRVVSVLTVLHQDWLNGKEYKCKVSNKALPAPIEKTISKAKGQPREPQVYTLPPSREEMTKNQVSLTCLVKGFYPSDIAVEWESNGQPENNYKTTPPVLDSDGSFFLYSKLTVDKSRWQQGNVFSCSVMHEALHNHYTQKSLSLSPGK
light: QVLTQSPSSLSASVGDRVTINCQASQSVYHNTYLAWYQQKPGKVPKQLIYDASTLASGVPSRFSGSGSGTDFTLTISSLQPEDVATYYCLGSYDCTNGDCFVFGGGTKVEIKRTVAAPSVFIFPPSDEQLKSGTASVVCLLNNFYPREAKVQWKVDNALQSGNSQESVTEQDSKDSTYSLSSTLTLSKADYEKHKVYACEVTHQGLSSPVTKSFNRGEC
B5: Antibody Ab12 (antibody, human IgG1, kappa, N297A, V domains shown)
VH: EVQLVESGGGLVQPGGSLRLSCAVSGIDVTNYYMQWVRQAPGKGLEWVGVIGVNGKRYYASWAKGRFTISRDNSKTTVYLQMNSLRAEDTAVYFCARGDIWGQGTLVTVSS
VL: QVLTQSPSSLSASVGDRVTINCRASQSVYYNNYLAWYQQKPGKVPKQLIYSTSTLASGVPSRFSGSGSGTDFTLTISSLQPEDVATYYCLGSYDCSNGDCFVFGGGTKVEIKR
notes: as for B1
B6: Antibody Ab6 (antibody, human IgG1, kappa, N297A)
heavy: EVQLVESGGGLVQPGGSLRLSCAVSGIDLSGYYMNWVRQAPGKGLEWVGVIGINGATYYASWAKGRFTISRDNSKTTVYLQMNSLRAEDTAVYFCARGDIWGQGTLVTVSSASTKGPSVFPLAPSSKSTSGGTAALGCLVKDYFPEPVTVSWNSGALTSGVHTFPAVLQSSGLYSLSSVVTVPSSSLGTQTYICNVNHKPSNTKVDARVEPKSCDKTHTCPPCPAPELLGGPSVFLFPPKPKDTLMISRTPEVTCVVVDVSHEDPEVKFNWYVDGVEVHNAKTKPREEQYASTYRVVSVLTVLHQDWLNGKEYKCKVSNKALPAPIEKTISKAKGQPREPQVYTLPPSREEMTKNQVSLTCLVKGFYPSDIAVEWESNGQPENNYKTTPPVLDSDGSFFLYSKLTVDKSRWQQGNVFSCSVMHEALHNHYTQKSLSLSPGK
light: QVLTQSPSSLSASVGDRVTINCQASQSVYHNTYLAWYQQKPGKVPKQLIYDASTLASGVPSRFSGSGSGTDFTLTISSLQPEDVATYYCLGSYDCTNGDCFVFGGGTKVEIKRTVAAPSVFIFPPSDEQLKSGTASVVCLLNNFYPREAKVQWKVDNALQSGNSQESVTEQDSKDSTYSLSSTLTLSKADYEKHKVYACEVTHQGLSSPVTKSFNRGEC
notes: as for B1
B7: Antibody Ab3 (antibody, human IgG1, kappa, N297A)
heavy: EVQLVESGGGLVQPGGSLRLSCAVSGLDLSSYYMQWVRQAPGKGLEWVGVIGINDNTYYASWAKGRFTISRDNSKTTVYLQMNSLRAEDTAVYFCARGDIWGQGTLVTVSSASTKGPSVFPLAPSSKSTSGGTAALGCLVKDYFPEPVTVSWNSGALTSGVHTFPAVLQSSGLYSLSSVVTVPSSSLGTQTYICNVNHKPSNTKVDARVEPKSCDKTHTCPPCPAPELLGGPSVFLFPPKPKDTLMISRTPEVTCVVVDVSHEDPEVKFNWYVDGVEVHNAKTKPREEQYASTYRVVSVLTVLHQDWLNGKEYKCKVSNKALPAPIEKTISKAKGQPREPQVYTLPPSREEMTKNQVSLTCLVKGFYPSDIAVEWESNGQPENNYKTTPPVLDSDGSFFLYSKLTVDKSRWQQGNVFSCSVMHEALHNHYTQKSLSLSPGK
light: QVLTQSPSSLSASVGDRVTINCQASQSVYDNNYLAWYQQKPGKVPKQLIYSTSTLASGVPSRFSGSGSGTDFTLTISSLQPEDVATYYCLGSYDCSSGDCFVFGGGTKVEIKRTVAAPSVFIFPPSDEQLKSGTASVVCLLNNFYPREAKVQWKVDNALQSGNSQESVTEQDSKDSTYSLSSTLTLSKADYEKHKVYACEVTHQGLSSPVTKSFNRGEC
B8: Antibody Ab10 (antibody, human IgG1, kappa, N297A)
heavy: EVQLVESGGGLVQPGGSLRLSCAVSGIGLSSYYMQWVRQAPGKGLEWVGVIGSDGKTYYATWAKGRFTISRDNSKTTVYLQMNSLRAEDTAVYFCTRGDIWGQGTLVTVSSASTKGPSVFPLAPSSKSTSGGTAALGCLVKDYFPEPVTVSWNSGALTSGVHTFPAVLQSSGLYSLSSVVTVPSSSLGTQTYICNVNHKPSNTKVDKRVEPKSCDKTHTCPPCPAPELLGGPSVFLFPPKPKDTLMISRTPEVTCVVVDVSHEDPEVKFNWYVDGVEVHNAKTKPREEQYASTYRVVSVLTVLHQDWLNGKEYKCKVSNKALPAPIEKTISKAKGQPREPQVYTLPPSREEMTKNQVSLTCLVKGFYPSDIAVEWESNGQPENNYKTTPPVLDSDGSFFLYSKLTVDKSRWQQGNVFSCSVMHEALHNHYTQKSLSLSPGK
light: QVLTQSPSSLSASVGDRVTINCQASQNVYNNNYLAWYQQKPGKVPKQLIYSTSTLASGVPSRFSGSGSGTDFTLTISSLQPEDVATYYCLGSYDCSRGDCFVFGGGTKVEIKRTVAAPSVFIFPPSDEQLKSGTASVVCLLNNFYPREAKVQWKVDNALQSGNSQESVTEQDSKDSTYSLSSTLTLSKADYEKHKVYACEVTHQGLSSPVTKSFNRGEC
notes: as for B1
B9: Antibody Ab1 (antibody, human IgG1, kappa, N297A, V domains shown)
VH: QSLEESGGRLVTPGTPLTLTCTVSGLDLSSYYMQWVRQAPGKGLEWIGVIGINDNTYYASWAKGRFTISRASSTTVDLKMTSLTTEDTATYFCARGDIWGPGTLVTVSS
VL: QVLTQTASPVSAAVGSTVTINCQASQSVYDNNYLAWYQQKPGQPPKQLIYSTSTLASGVSSRFKGSGSGTQFTLTISDLECADAATYYCLGSYDCSSGDCFVFGGGTEVVVKR
notes: Chimeric anti-CGRP antibody (rabbit variable regions, human gamma-1 and kappa constant regions), full length
B10: Antibody Ab7 (antibody, human IgG1, kappa, N297A, V domains shown)
VH: QEQLKESGGRLVTPGTSLTLTCTVSGIDLSNHYMQWVRQAPGKGLEWIGVVGINGRTYYASWAKGRFTISRTSSTTVDLKMTRLTTEDTATYFCARGDIWGPGTLVTVSS
VL: QVLTQTASPVSAAVGSTVTINCQASQSVYNYNYLAWYQQKPGQPPKQLIYSTSTLASGVSSRFKGSGSGTQFTLTISDVQCDDAATYYCLGSYDCSTGDCFVFGGGTEVVVKR
notes: Chimeric anti-CGRP antibody, full length
B11: Antibody Ab11 (antibody, human IgG1, kappa, N297A, V domains shown)
VH: QSLEESGGRLVTPGGSLTLTCTVSGIDVTNYYMQWVRQAPGKGLEWIGVIGVNGKRYYASWAKGRFTISKTSSTTVDLKMTSLTTEDTATYFCARGDIWGPGTLVTVSS
VL: QVLTQTASPVSPAVGSTVTINCRASQSVYYNNYLAWYQQKPGQPPKQLIYSTSTLASGVSSRFKGSGSGTQFTLTISDVQCDDAATYYCLGSYDCSNGDCFVFGGGTEVVVKR
notes: as for B10
B12: Antibody Ab9 (antibody, human IgG1, kappa, N297A, V domains shown)
VH: QSLEESGGRLVTPGTPLTLTCTVSGIGLSSYYMQWVRQSPGRGLEWIGVIGSDGKTYYATWAKGRFTISKTSSTTVDLRMASLTTEDTATYFCTRGDIWGPGTLVTVSS
VL: QVLTQTPSPVSAAVGSTVTINCQASQNVYNNNYLAWYQQKPGQPPKQLIYSTSTLASGVSSRFRGSGSGTQFTLTISDVQCDDAATYYCLGSYDCSRGDCFVFGGGTEVVVKR
notes: as for B10
B13: Antibody Ab4 (antibody, human IgG1, kappa, N297A, V domains shown)
VH: QSLEESGGRLVTPGTPLTLTCSVSGIDLSGYYMNWVRQAPGKGLEWIGVIGINGATYYASWAKGRFTISKTSSTTVDLKMTSLTTEDTATYFCARGDIWGPGTLVTVSS
VL: QVLTQTPSPVSAAVGSTVTINCQASQSVYHNTYLAWYQQKPGQPPKQLIYDASTLASGVPSRFSGSGSGTQFTLTISGVQCNDAAAYYCLGSYDCTNGDCFVFGGGTEVVVKR

This experiment addresses T1, human Calcitonin Gene Related Peptide alpha (Homo sapiens, C-terminal amide (-NH2 printed after the last residue F; the filing words it as 'the N-terminal phenylalanine is amidated'); 125I radiolabeled in the receptor binding assay of Example 6).
T1 construct: 37-residue peptide bought from American Peptides and Bachem; Coated directly on plates in the ELISA of the recombinant antibodies; also called CGRPα; CGRP-alpha
T1 peptide: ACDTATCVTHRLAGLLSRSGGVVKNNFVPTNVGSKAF
The experiment in a line: ELISA, plates coated with CGRPα, anti-human IgG Fc-HRP detection. On the procedure: To characterize recombinant expressed antibodies for their ability to bind to human-CGRPα, antibody-containing solutions were tested by ELISA. All incubations were done at room temperature. Briefly, Immulon IV plagtes (Thermo Scientific), were coated with a CGRPα containing solution (1 ut/mL in PBS) for 2 hours. CGRPα-coated plates were then washed three times in wash buffer (PBS, 0.05% Tween-20). The plates were then blocked using a blocking solution (PBS, 0.5% fish skin gelatin, 0.05% Tween-20) for approximately one hour. The blocking solution was then removed and the plates were then incubated with a dilution series of the antibody being tested for approximately one hour. At the end of this incubation, the plate was washed three times with wash buffer and further incubated with a secondary antibody containing solution (Peroxidase conjugated affinipure F(ab′)2 fragment goat anti-human IgG, Fc fragment specific (Jackson Immunoresearch) for approximately 45 minutes and washed three times. At that point a substrate solution (TMB peroxidase substrate, BioFx) and incubated for 3 to 5 minutes in the dark. The reaction was stopped by addition of a HCl containing solution (0.5M) and the plate was read at 450 nm in a plate-reader.
On the technique in general: An ELISA detects its analyte on a solid surface through an enzyme-linked reagent.
In the case of B1, the binding result is “binds”. B2: the binding result is listed as “binds”. For B3 the value was “binds”. With B4, the binding result is reported as “binds”.

Turning to B5, the binding result is reported as “binds”.

Take B6: the binding result is recorded as “binds”. For B7 the value was “binds”; for B8, “binds”.

Regarding B9, the binding result is given as “binds”.

B10: the binding result is given as “binds”. B11: the binding result is “binds”. Regarding B12, the binding result is listed as “binds”. With B13, the binding result is “binds”.

The values are drawn from patent US20120294802A1 (ALDERBIO, published 2012).
